Test results taken from publication PMC3201810.

Target: Bacillus cereus ChbC (EIIC component of the diacetylchitobiose phosphotransferase system) (Bacillus cereus)
Assay: SEC-MALS

stoichiometry N: 2
Substance: Bacillus cereus ChbC (EIIC component of the diacetylchitobiose phosphotransferase system) (natural protein)
